Source: patent publication US6989369B2, “Kunitz domain peptides” (Dyax Corp., priority 2003, dated 2006)
Positions of bridges follow the written chain, without caps; N, C: chain ends. No end group written: not given here.

Key:
[1] = Clinical testing of DX-88 for hereditary angioedema (HAE); format: in vivo, human; settings: treatment of hereditary angioedema, initial data
[2] = target: T1, HNE (Homo sapiens, UniProt P08246); assay: HNE-neutralizing activity expected for doubly fused protein; format: biochemical; settings: expected value, protein not tested
T1 sequence (P08246 30-267): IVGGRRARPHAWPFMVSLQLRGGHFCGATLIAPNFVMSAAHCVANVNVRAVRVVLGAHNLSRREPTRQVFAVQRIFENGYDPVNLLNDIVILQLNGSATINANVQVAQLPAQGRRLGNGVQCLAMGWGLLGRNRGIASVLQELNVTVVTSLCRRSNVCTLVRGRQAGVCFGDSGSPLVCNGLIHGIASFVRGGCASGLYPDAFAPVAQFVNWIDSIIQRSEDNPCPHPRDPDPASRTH

[3] = rabbit
[4] = about 840 mg, 80 open-heart surgery patients; cited from earlier work
[5] = after 8 days of treatment; cited from earlier work

For “DX-88: Kunitz domain derived from the first Kunitz domain of human LACI, inhibits human plasma kallikrein; SEQ ID No.: 48 (EAMHSFCAFKADDGPCRAAHPRWFFNIFTRQCEEFIYGGCEGNQNRFESLEECKKMCTRD; DX-88 Kunitz domain peptide)”, the “safety and efficacy in the clinic” value [1] was “safe and effective”.

In the case of “Dx890-HA-Dx890: albumin fused at both termini to DX-890 via (GGS)4GG linkers; SEQ ID No.: 75”, the “HNE-neutralizing activity relative to DX890” value [2] is reported as about 16%.

In the case of “EACNLPIVRGPCIAFFPRWAFDAVKGKCVLFPYGGCQGNGNKFYSEKECREYCGVP (disulfide 3-53, 12-36, 28-49) [DX-890]”, the “in vivo stability, SEC analysis of plasma” value [3] is reported as “relatively rapid association of label with higher molecular weight plasma components”, the “% α” value ([3]; in vivo) is reported as 75% and the “% β” value ([3]; in vivo) is reported as 25%. The “Clearance Times T1/2α” value ([3]; in vivo) was 24 s.

In the case of “bovine pancreatic trypsin inhibitor [BPTI]”, the “decrease of mean amount transfused” value [4] is given as 74% and the “reduction of blood loss” value [4] is given as “almost half”.

B1: Pulmozyme: a recombinant human deoxyribonuclease which reduces mucus viscoelasticity by hydrolyzing DNA in sputum (protein, UniProt P24855 23-282, looked up)
Deoxyribonuclease-1: LKIAAFNIQTFGETKMSNATLVSYIVQILSRYDIALVQEVRDSHLTAVGKLLDNLNQDAPDTYHYVVSEPLGRNSYKERYLFVYRPDQVSAVDSYYYDDGCEPCGNDTFNREPAIVRFFSRFTEVREFAIVPLHAAPGDAVAEIDALYDVYLDVQEKWGLEDVMLMGDFNAGCSYVRPSQWSSIRLWTSPTFQWLIPDSADTTATPTHCAYDRIVVAGMLLRGAVVPDSALPFNFQAAYGLSDQLAQAISDHYPVEVMLK
For B1, the “effect on pulmonary function” value [5] is given as “increase FEV1 and FVC”.
